Source: paper PMC9482650, “Quantitative fragmentomics allow affinity mapping of interactomes” (Nature Communications, 2022)

T1: APBA2_1, Q99767
T1 sequence (Q99767 563-664, limits assumed, looked up): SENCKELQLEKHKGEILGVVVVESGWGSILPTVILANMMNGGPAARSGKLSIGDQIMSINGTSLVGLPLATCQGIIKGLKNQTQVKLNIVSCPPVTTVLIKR

T2: APBA3_1, O96018
T2 sequence (O96018 389-490, limits assumed, looked up): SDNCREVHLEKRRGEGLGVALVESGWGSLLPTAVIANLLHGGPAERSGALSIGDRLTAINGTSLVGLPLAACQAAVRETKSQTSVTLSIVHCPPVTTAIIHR

T3: GRIP1_7, Q9Y3R0
T3 sequence (Q9Y3R0 999-1096, limits assumed, looked up): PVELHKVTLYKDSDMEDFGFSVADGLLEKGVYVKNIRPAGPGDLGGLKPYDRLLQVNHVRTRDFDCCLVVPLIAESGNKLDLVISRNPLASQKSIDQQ

T4: HTRA4, P83105
T4 sequence (P83105 378-476, limits assumed, looked up): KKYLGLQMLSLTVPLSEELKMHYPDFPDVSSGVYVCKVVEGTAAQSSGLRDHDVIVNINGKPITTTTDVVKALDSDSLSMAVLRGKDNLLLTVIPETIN

T5: LNX2_3, Q8N448
T5 sequence (Q8N448 463-564, limits assumed, looked up): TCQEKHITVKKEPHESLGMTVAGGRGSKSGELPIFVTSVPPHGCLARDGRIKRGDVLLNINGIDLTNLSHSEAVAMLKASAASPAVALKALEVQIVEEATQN

T6: MPP6, Q9NZW5
T6 sequence (Q9NZW5 125-219, limits assumed, looked up): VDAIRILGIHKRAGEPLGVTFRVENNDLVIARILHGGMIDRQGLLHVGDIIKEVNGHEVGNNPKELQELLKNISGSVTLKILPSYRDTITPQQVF

T7: PDZD2_2, O15018
T7 sequence (O15018 329-429, limits assumed, looked up): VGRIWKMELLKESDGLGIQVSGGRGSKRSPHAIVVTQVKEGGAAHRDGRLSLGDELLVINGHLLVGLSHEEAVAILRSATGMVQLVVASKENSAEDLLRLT

T8: RADIL, Q96JH8
T8 sequence (Q96JH8 971-1071, limits assumed, looked up): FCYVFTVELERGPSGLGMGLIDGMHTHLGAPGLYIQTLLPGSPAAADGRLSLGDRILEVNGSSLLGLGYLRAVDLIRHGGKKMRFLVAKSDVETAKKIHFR

T9: RAPGEF6, Q8TEU7
T9 sequence (Q8TEU7 525-625, limits assumed, looked up): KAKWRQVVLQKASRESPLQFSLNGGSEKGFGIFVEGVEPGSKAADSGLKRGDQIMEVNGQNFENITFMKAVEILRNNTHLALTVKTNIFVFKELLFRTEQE

T10: SNTB1, Q13884
T10 sequence (Q13884 107-205, limits assumed, looked up): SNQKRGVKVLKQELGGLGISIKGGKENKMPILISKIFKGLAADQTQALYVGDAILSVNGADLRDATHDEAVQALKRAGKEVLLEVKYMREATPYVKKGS

T11: SNTG1, Q9NSN8
T11 sequence (Q9NSN8 52-150, limits assumed, looked up): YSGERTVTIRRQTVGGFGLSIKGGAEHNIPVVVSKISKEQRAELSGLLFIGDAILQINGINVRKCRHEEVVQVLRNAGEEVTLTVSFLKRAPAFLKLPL

T12: TIAM2, Q8IVF5
T12 sequence (Q8IVF5 885-986, limits assumed, looked up): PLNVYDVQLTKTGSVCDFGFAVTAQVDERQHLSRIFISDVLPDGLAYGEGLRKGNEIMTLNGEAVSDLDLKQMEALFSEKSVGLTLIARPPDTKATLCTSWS


Assays:
Test in all cases: holdup assay
Parameters in all cases: key: below the threshold = too weak to quantify, mostly under pKd 3.1 to 4
Settings in all cases: plain residues with an end cap or a label only (N-terminal biotin on a linker: ado-ado)
APBA2_1, Q99767 = molecular target: T1, APBA2_1, Q99767
APBA3_1, O96018 = molecular target: T2, APBA3_1, O96018
DLG1_1, Q12959 = molecular target: DLG1_1, Q12959
DLG4_1, P78352 = molecular target: DLG4_1, P78352
DLG5_1, Q8TDM6 = molecular target: DLG5_1, Q8TDM6
FRMPD2_2, Q68DX3 = molecular target: FRMPD2_2, Q68DX3
GRIP1_7, Q9Y3R0 = molecular target: T3, GRIP1_7, Q9Y3R0
GRIP2_4, Q9C0E4 = molecular target: GRIP2_4, Q9C0E4
GRIP2_5, Q9C0E4 = molecular target: GRIP2_5, Q9C0E4
GRIP2_6, Q9C0E4 = molecular target: GRIP2_6, Q9C0E4
HTRA4, P83105 = molecular target: T4, HTRA4, P83105
Inadl_2, Q8NI35 = molecular target: Inadl_2, Q8NI35
Inadl_3, Q8NI35 = molecular target: Inadl_3, Q8NI35
Inadl_5, Q8NI35 = molecular target: Inadl_5, Q8NI35
LIMK2, P53671 = molecular target: LIMK2, P53671
LNX2_3, Q8N448 = molecular target: T5, LNX2_3, Q8N448
MPP6, Q9NZW5 = molecular target: T6, MPP6, Q9NZW5
PDLIM1, O00151 = molecular target: PDLIM1, O00151
PDZD2_2, O15018 = molecular target: T7, PDZD2_2, O15018
RADIL, Q96JH8 = molecular target: T8, RADIL, Q96JH8
RAPGEF6, Q8TEU7 = molecular target: T9, RAPGEF6, Q8TEU7
SNTB1, Q13884 = molecular target: T10, SNTB1, Q13884
SNTG1, Q9NSN8 = molecular target: T11, SNTG1, Q9NSN8
TIAM2, Q8IVF5 = molecular target: T12, TIAM2, Q8IVF5
TJP1_3, Q07157 = molecular target: TJP1_3, Q07157
Sequence of TJP1_3, Q07157 (Q07157 416-512): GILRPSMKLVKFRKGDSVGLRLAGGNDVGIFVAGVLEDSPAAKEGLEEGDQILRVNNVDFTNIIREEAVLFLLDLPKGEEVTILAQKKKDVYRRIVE

Sequence of Inadl_3, Q8NI35 (Q8NI35 359-469): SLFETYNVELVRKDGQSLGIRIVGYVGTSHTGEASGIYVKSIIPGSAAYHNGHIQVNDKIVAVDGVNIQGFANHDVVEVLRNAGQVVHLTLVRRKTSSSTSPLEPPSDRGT
Sequence of DLG5_1, Q8TDM6 (Q8TDM6 617-713): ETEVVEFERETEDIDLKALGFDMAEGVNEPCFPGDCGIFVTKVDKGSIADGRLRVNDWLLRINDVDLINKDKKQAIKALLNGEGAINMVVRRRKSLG
Sequence of LIMK2, P53671 (P53671 143-248): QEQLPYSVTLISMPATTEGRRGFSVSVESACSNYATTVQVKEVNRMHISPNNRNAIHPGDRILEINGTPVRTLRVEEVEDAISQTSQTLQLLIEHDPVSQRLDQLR
Sequence of GRIP2_4, Q9C0E4 (Q9C0E4 446-548): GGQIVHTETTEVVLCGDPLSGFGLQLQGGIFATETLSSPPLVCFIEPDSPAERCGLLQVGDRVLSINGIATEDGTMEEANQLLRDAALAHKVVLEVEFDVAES
Sequence of FRMPD2_2, Q68DX3 (Q68DX3 944-1038): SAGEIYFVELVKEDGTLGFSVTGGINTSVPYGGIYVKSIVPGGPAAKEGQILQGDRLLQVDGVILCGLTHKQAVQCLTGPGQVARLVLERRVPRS
Sequence of PDLIM1, O00151 (O00151 1-87): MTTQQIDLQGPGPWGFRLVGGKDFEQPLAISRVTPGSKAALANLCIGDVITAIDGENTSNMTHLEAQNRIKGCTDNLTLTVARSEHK
Sequence of DLG4_1, P78352 (P78352 62-152): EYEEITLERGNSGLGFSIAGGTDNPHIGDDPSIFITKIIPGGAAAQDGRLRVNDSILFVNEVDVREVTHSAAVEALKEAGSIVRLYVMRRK
Sequence of Inadl_2, Q8NI35 (Q8NI35 238-335): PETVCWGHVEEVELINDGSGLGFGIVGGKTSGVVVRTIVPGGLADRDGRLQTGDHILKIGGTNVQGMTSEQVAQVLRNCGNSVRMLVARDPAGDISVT
Sequence of Inadl_5, Q8NI35 (Q8NI35 673-780): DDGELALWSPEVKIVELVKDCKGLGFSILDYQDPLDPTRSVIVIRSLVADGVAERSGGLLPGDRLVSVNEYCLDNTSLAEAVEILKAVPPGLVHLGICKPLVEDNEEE
Sequence of GRIP2_6, Q9C0E4 (Q9C0E4 648-740): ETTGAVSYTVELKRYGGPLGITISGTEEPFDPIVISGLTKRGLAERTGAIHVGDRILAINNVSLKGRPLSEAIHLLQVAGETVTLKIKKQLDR
Sequence of GRIP2_5, Q9C0E4 (Q9C0E4 544-642): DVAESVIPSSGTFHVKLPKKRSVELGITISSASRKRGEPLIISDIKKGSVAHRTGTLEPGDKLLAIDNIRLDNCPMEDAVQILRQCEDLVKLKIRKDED

| Binder | pKd (APBA2_1, Q99767) | pKd (APBA3_1, O96018) | pKd (DLG1_1, Q12959) | pKd (DLG4_1, P78352) | pKd (DLG5_1, Q8TDM6) | pKd (FRMPD2_2, Q68DX3) | pKd (GRIP1_7, Q9Y3R0) | pKd (GRIP2_4, Q9C0E4) | pKd (GRIP2_5, Q9C0E4) | pKd (GRIP2_6, Q9C0E4) | pKd (HTRA4, P83105) | pKd (Inadl_2, Q8NI35) | pKd (Inadl_3, Q8NI35) | pKd (Inadl_5, Q8NI35) | pKd (LIMK2, P53671) | pKd (LNX2_3, Q8N448) | pKd (MPP6, Q9NZW5) | pKd (PDLIM1, O00151) | pKd (PDZD2_2, O15018) | pKd (RADIL, Q96JH8) | other results |
| --- | --- | --- | --- | --- | --- | --- | --- | --- | --- | --- | --- | --- | --- | --- | --- | --- | --- | --- | --- | --- | --- |
| GSGAVEMESV [AQP6, Q13520] | below the threshold | below the threshold | below the threshold | below the threshold | below the threshold | below the threshold | below the threshold | below the threshold | below the threshold | below the threshold | 3.88 | below the threshold | below the threshold | below the threshold | below the threshold | below the threshold | below the threshold | below the threshold | 3.7 | 3.56 | pKd (RAPGEF6, Q8TEU7): below the threshold; pKd (SNTB1, Q13884): below the threshold; pKd (SNTG1, Q9NSN8): below the threshold; pKd (TIAM2, Q8IVF5): below the threshold; pKd (TJP1_3, Q07157): below the threshold |
| SARSRLSSNL [HCN2, Q9UL51] | below the threshold | below the threshold | below the threshold | below the threshold | below the threshold | below the threshold | below the threshold | below the threshold | below the threshold | below the threshold | below the threshold | below the threshold | below the threshold | below the threshold | below the threshold | below the threshold | below the threshold | below the threshold | 3.74 | below the threshold | pKd (RAPGEF6, Q8TEU7): below the threshold; pKd (SNTB1, Q13884): below the threshold; pKd (SNTG1, Q9NSN8): below the threshold; pKd (TIAM2, Q8IVF5): below the threshold; pKd (TJP1_3, Q07157): below the threshold |
| PPYRHRNTVV [ERBB4, Q15303] | below the threshold | below the threshold | 4.83 | 4.88 | below the threshold | below the threshold | below the threshold | below the threshold | below the threshold | below the threshold | below the threshold | below the threshold | below the threshold | 3.58 | below the threshold | below the threshold | below the threshold | below the threshold | 4.25 | 4.21 | pKd (RAPGEF6, Q8TEU7): below the threshold; pKd (SNTB1, Q13884): 5; pKd (SNTG1, Q9NSN8): below the threshold; pKd (TIAM2, Q8IVF5): below the threshold; pKd (TJP1_3, Q07157): below the threshold |
| CLREWCDAFL [BANF1, O75531] | below the threshold | below the threshold | below the threshold | below the threshold | below the threshold | below the threshold | below the threshold | below the threshold | below the threshold | below the threshold | 3.64 | below the threshold | 4.23 | below the threshold | 3.61 | below the threshold | below the threshold | below the threshold | below the threshold | 3.85 | pKd (RAPGEF6, Q8TEU7): 3.47; pKd (SNTB1, Q13884): below the threshold; pKd (SNTG1, Q9NSN8): below the threshold; pKd (TIAM2, Q8IVF5): 4.05; pKd (TJP1_3, Q07157): below the threshold |
